No end group written: not given here. *: point of attachment. Propanoyl(3-indol-3-yl) = O=C(CCc1c[nH]c2ccccc12)*
Tests used:
Human GPR7 [1] = molecular target: T1, Human GPR7 (human, UniProt P48145 1-328); assay: cell-based or functional assay
T1 sequence: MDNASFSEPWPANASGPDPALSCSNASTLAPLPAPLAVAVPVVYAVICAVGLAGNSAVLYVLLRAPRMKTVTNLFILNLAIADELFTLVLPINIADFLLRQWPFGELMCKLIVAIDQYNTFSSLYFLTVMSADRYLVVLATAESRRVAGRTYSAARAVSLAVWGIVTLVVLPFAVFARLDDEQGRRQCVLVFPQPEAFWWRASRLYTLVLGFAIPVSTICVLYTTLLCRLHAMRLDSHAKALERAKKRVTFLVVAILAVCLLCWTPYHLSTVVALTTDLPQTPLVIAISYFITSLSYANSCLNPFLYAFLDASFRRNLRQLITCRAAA

Human GPR7 [2] = molecular target: T1, Human GPR7; assay: competition with [125I-Tyr10]-hGPR8L(1-23), membrane fraction of GPR7 expressing CHO cells
Human GPR7 [3] = molecular target: T1, Human GPR7; assay: cell-based or functional assay; remark: listed apart in the source
[4] = molecular target: T2, Human GPR8 receptor protein (human, UniProt P48146 1-333); assay: competition with [125I-Tyr10]-hGPR8L(1-23), membrane fraction of GPR8 expressing CHO cells
T2 construct: Full-length receptor expressed in CHO dhfr- cells (CHO/GPR8)
Description: Cell membrane fraction prepared from Human GPR8 expressing cells was diluted to various concentration with assay buffer (25 mM Tris-HCl, 5 mM EDTA, 0.05% CHAPS (3-[(3-Cholamidopropyl) Dimethyl-Ammonio]-1-Propanesulfonate), 0.1% BSA, 0.25 mM PMSF, 1 μg/ml Pepstatin, 20 μg/ml Leupeptin, pH7.4), and 200 μl each of the diluent was dispensed into polypropilene test tube (Falcon 2053). In order to determine an amount of maximum binding (TB), […] of DMSO and 2 μl of 7 nM [¹²⁵I-Tyr²]-hGPR8L(1-23) or [¹²⁵I-Tyr¹⁰]-hGPR8L(1-23) were added to the membrane fraction solution. Further, in order to determine a non-specific binding (NSB), 2 μt of 100 μM hGPR8L(1-23)/DMSO solution and 2 μl of 7 nM [¹²⁵I]-Tyr²]-hGPR8L(1-23) or [¹²⁵I-Tyr¹⁰]-hGPR8L(1-23) were added to the membrane fraction solution. The reaction was done at 25° C. for 60 minutes, and the reaction mixture was filtered by suction filtration using Whatman glassfilter (GF-F) treated with polyethyleneimine. After filtration, a radioactivity remaining on the filter was counted using γ-counter, and an amount of specific binding (SB) was estimated by subtracting an amount of non-specific binding from an amount of maximum binding. Since the specific binding in the case where [¹²⁵I-Tyr¹⁰]-hGPR8L(1-23) was used, was twice as much as that in the case where [¹²⁵1-Tyr²]-hGPR8L(1-23) was used, in practice, [¹²⁵I-Tyr¹⁰]-hGPR8L(1-23) was used in the assay. When the concentration of membrane fraction was changed, a specific binding of [¹²⁵I-Tyr¹⁰]-hGPR8L(1-23) was perceived depending on the concentration of membrane fraction.
A receptor binding activity of human- and porcine-homologue derivatives of GPR8 ligand peptide, wherein the synthesis method has been described in the specification, was measured using a membrane fraction of GPR8 expressing CHO cells and [¹²⁵-Tyr¹⁰]-hGPR8L(1-23) by the method described in Reference Example 43.

[5] = molecular target: T2, Human GPR8 receptor protein; assay: cell-based or functional assay
[6] = molecular target: T3, TGR26, rat-derived G protein-coupled receptor protein (rat, UniProt Q56UD9 1-329); assay: competition with [125I-Tyr10]-hGPR8L(1-23), membrane fraction of TGR26 expressing CHO cells
T3 construct: Expressed in CHO dhfr- cells from pAK-rGPR7; also called rat TGR26; TGR26 receptor
T3 sequence: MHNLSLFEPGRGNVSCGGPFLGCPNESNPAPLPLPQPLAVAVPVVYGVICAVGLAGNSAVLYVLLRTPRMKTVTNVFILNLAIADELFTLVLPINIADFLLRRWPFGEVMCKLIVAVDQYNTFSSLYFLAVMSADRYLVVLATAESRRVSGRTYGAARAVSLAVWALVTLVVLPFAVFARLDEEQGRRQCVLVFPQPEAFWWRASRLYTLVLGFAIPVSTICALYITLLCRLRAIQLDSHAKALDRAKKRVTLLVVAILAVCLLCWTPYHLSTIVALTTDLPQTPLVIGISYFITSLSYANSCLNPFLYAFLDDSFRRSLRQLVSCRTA
Description: Cell membrane fraction prepared from TGR26 expressing cells was diluted to various concentration with assay buffer (25 mM Tris-HCl, 5 mM EDTA, 0.05% CHAPS (3-[(3-Cholamidopropyl) Dimethyl-Ammonio]-1-Propanesulfonate), 0.1% BSA, 0.5 mM PMSF, 1 μg/ml Pepstatin, 20 μg/ml Leupeptin, 4 μg/ml E-64, pH7.4), and 200 μl each of the diluent was dispensed into polypropilene test tube (Falcon 2053). In order to determine an amount of maximum binding, 2 μl of DMSO and 2 μl of 7 nM [¹²⁵-Tyr¹⁰]-hGPR8L(1-23) were added to the membrane fraction solution. Further, in order to determine a non-specific binding, 2 μl of 100 μM hGPR8L(1-23)/DMSO solution and 2 μl of 7 nM [¹²⁵I]-Tyr¹⁰]-hGPR8L(1-23) were added to the membrane fraction solution. The reaction was done at 25° C. for 75 minutes, and the reaction mixture was filtered by suction filtration using Whatman glassfilter (GF-F) treated with polyethyleneimine. In addition, the filter was washed twice with 1.5 ml of washing buffer (25 mM Tris-HCl, 5 mM EDTA, 0.05% CHAPS, 0.1% BSA, pH7.4). After filtration, a radioactivity remaining on the filter was counted using γ-counter, and an amount of specific binding was estimated by subtracting an amount of non-specific binding from an amount of maximum binding.
A receptor binding activity of human- and porcine-homologue derivatives of GPR8 ligand peptide obtained in the reference examples was measured using a membrane fraction of TGR26 expressing CHO cells and [¹²⁵I-Tyr¹⁰]-hGPR8L(1-23) by the method described in Reference Example 73.

T2 sequence (P48146 whole entry): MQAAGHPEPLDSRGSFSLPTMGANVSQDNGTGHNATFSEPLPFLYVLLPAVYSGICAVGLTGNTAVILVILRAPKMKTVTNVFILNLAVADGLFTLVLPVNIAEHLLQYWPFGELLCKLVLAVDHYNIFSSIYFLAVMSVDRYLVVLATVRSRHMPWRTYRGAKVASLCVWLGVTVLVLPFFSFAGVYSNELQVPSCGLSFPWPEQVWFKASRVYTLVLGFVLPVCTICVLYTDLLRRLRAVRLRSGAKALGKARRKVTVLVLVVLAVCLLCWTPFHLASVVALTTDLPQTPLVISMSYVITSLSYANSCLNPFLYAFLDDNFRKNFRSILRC

B1: human homologue of GPR8 ligand peptide consisting of 30 residues (peptide)
peptide: WYKHVASPRYHTVGRAAGLLMGLRRSPYLW
notes: also called hGPR8L(1-30); Human GPR8 ligand (1-30)
For B1, the “inhibition of intracellular cAMP production (IC50)” value (Human GPR7 [1]) was 0.13 nM, the IC50 (Human GPR7 [2]) was 0.025 nM and the “Promoting activity to GTPγS binding (EC50 nM)” value (shortened to “Promoting activity”) (Human GPR7 [3]) was 0.67 nM.

In the case of HVASPRYHTVGRAAGLLMGL (also called hGPR8L(4-23)) [Human GPR8 ligand (4-23)], the IC50 [4] is reported as 1400 nM, the IC50 (Human GPR7 [2]) is reported as 1200 nM and the “Promoting activity” value [5] is reported as 6700 nM. The “Promoting activity” value (Human GPR7 [3]) was > 10000 nM and the IC50 [6] was 2000 nM.

In the case of WYKHVASPRYHTVGRAAG (also called hGPR8L(1-18)) [Human GPR8 ligand (1-18)], the IC50 [4] is reported as 2700 nM, the IC50 (Human GPR7 [2]) is reported as 2400 nM and the “Promoting activity” value [5] is reported as > 10000 nM. The “Promoting activity” value (Human GPR7 [3]) was 6200 nM and the IC50 [6] was 760 nM.

WYKHVASPRYHTVGRAAGLLXGL (methionine sulfoxide, Met(O), at position 21, also called [MET(O)]-hGPR8L(1-23)) [Human GPR8 ligand (1-23) oxidant] was tested, and the IC50 [4] was 0.31 nM, the IC50 (Human GPR7 [2]) was 0.17 nM and the “Promoting activity” value [5] was 1.4 nM. For the same binder, the “Promoting activity” value (Human GPR7 [3]) was 1.6 nM and the IC50 [6] was 0.29 nM.

WYKHVASPRYHTVGRAAGL (also called hGPR8L(1-19)) [Human GPR8 ligand (1-19)] was tested, and the IC50 [4] was 100 nM, the IC50 (Human GPR7 [2]) was 1.7 nM and the “Promoting activity” value [5] was 1000 nM. The “Promoting activity” value (Human GPR7 [3]) was 84 nM and the IC50 [6] was 9.9 nM.

{Propanoyl(3-indol-3-yl)}-YKHVASPRYHTVGRAAGLLMGL (also called IndPr-hGPR8L(2-23)) [[N-3-Indolepropanoyl-Tyr^2]-human GPR8 ligand (2-23)] was tested, and the IC50 [4] was 0.28 nM, the IC50 (Human GPR7 [2]) was 0.044 nM and the “Promoting activity” value [5] was 5 nM. The “Promoting activity” value (Human GPR7 [3]) was 0.85 nM and the IC50 [6] was 0.12 nM.

For XYKHVASPRYHTVGRAAGLLMGL (D-Trp at position 1, also called [D-Trp^1]-hGPR8L(1-23)) [[D-Trp^1]-Human GPR8 ligand (1-23)], the IC50 [4] was 0.82 nM, the IC50 (Human GPR7 [2]) was 0.63 nM and the “Promoting activity” value [5] was 7.1 nM. For the same binder, the “Promoting activity” value (Human GPR7 [3]) was 2.3 nM and the IC50 [6] was 1.3 nM.

For WYKHVASPRYHTVGRAAGLL (also called hGPR8L(1-20)) [Human GPR8 ligand (1-20)], the IC50 [4] was 0.2 nM, the IC50 (Human GPR7 [2]) was 0.094 nM and the “Promoting activity” value [5] was 0.86 nM. The “Promoting activity” value (Human GPR7 [3]) was 0.88 nM and the IC50 [6] was 0.17 nM.

In the case of YKHVASPRYHTVGRAAGLLMGL (also called hGPR8L(2-23)) [Human GPR8 ligand (2-23)], the IC50 [4] is reported as 160 nM, the IC50 (Human GPR7 [2]) is reported as 140 nM and the “Promoting activity” value [5] is reported as 3900 nM. The “Promoting activity” value (Human GPR7 [3]) was 7410 nM and the IC50 [6] was 240 nM.

In the case of RYHTVGRAAGLLMGL (also called hGPR8L(9-23)) [Human GPR8 ligand (9-23)], the IC50 [4] is reported as 1300 nM, the IC50 (Human GPR7 [2]) is reported as 2200 nM and the “Promoting activity” value [5] is reported as 4200 nM. The “Promoting activity” value (Human GPR7 [3]) was > 10000 nM and the IC50 [6] was 2500 nM.

B2: Fmoc-added Human GPR8L (1-23) (peptide)
peptide: XYKHVASPRYHTVGRAAGLLMGL
modifications: N-terminal Fmoc (N-9-fluorenylmethoxycarbonyl) on Trp 1
notes: also called Fmoc-hGPR8L(1-23); Human GPR8 ligand (1-23) modified by Fmoc
B2 was tested, and the IC50 [4] was 0.2 nM, the IC50 (Human GPR7 [2]) was 0.14 nM and the “Promoting activity” value [5] was 240 nM. The “Promoting activity” value (Human GPR7 [3]) was 6.6 nM and the IC50 [6] was 0.23 nM.

XYKHVASPRYHTVGRAAGLLMGL (N-alpha-acetyl on Trp 1, also called Ac-hGPR8L(1-23)) [[N^α-Acetyl-Trp^1]-Human GPR8 ligand (1-23)] was tested, and the IC50 [4] was 2.4 nM, the IC50 (Human GPR7 [2]) was 0.077 nM and the “Promoting activity” value [5] was 14 nM. For the same binder, the “Promoting activity” value (Human GPR7 [3]) was 1.5 nM and the IC50 [6] was 0.27 nM.

Ac-YKHVASPRYHTVGRAAGLLMGL (also called Ac-hGPR8L(2-23)) [[N-Acetyl-Tyr^2]-Human GPR8 ligand (2-23)] was tested, and the IC50 [4] was 420 nM, the IC50 (Human GPR7 [2]) was 570 nM and the “Promoting activity” value [5] was 7200 nM. For the same binder, the “Promoting activity” value (Human GPR7 [3]) was 7000 nM and the IC50 [6] was 570 nM.

B3: porcine GPR8 ligand (1-23) (peptide)
peptide: WYKHTASPRYHTVGRAAGLLMGL
notes: also called pGPR8L(1-23); porcine homologue of GPR8 ligand peptide
B3 was tested, and the IC50 [4] was 0.38 nM, the IC50 (Human GPR7 [2]) was 0.066 nM and the “Promoting activity” value [5] was 1.5 nM. For the same binder, the “Promoting activity” value (Human GPR7 [3]) was 0.35 nM and the IC50 [6] was 0.12 nM.

Source: patent US20050124539A1 (Takeda / Millennium, published 2005)
